Measured values reported in patent publication US20260242419A1, “A CYCLIC PEPTIDE FOR TRAPPING INTERLEUKIN-1 BETA” (Merck Sharp & Dohme LLC, priority 2023, published 2026).
Starred links: 1 amine or outer side, 2 acyl side, 3 side chain; linkers in the order of their positions; H or OH if unused. Non-standard residues stand in square brackets, D forms with d. TyrEtNAc = (2S)-3-[4-(2-acetamidoethoxy)phenyl]-2-amino-propanoic acid, CC(=O)NCCOc1ccc(C[C@H](N[*:1])C(=O)[*:2])cc1; Phe(4-(4-Ac-piperazinyl)) = CC(=O)N1CCN(c2ccc(C[C@H](N)C(=O)O)cc2)CC1; dPro(4R-(4-pyridylmethyl)) = O=C(O)[C@H]1C[C@@H](Cc2ccncc2)CN1; Trp(βS-Me,4-F) = C[C@@H](c1c[nH]c2cccc(F)c12)[C@H](N)C(=O)O; Ala(1-bicyclo(1.1.1)pentyl) = N[C@@H](CC12CC(C1)C2)C(=O)O; dPro(3S-(4-F-Bn)) = O=C(O)[C@@H]1NCC[C@@H]1Cc1ccc(F)cc1; Phe(2-Cl,4-COOH) = N[C@@H](Cc1ccc(C(=O)O)cc1Cl)C(=O)O; Ala(pyrimidin-5-yl) = N[C@@H](Cc1cncnc1)C(=O)O; Phe(4-CONH2) = NC(=O)c1ccc(C[C@H](N)C(=O)O)cc1; Phe(4-COOH) = N[C@@H](Cc1ccc(C(=O)O)cc1)C(=O)O; Pro(cis-4-F) = O=C(O)[C@@H]1C[C@H](F)CN1; Ala(4-THP) = N[C@@H](CC1CCOCC1)C(=O)O; d(αMeD) = C[C@@](N)(CC(=O)O)C(=O)O; 4Pal = N[C@@H](Cc1ccncc1)C(=O)O; d(αMeS) = C[C@@](N)(CO)C(=O)O; Dab = NCC[C@H](N)C(=O)O; Aib = CC(C)(N)C(=O)O

Target: Recombinant human IL-1β (BioLegend 579404) (human, UniProt P01584 117-269)
Test: cell-based or functional assay

Binder | MRC5 IC50
cyclo([TyrEtNAc][Ala(1-bicyclo(1.1.1)pentyl)][Phe(4-CONH2)]G[Pro(cis-4-F)][Trp(βS-Me,4-F)][Aib]SW[d(αMeD)][Ala(4-THP)]Q[Dab]G[dPro(3S-(4-F-Bn))]) (SMILES CC(=O)NCCOc1ccc(C[C@@H]2NC(=O)[C@H]3[C@@H](Cc4ccc(F)cc4)CCN3C(=O)CNC(=O)[C@H](CCN)NC(=O)[C@H](CCC(N)=O)NC(=O)[C@H](CC3CCOCC3)NC(=O)[C@@](C)(CC(=O)O)NC(=O)[C@H](Cc3c[nH]c4ccccc34)NC(=O)[C@H](CO)NC(=O)C(C)(C)NC(=O)[C@H]([C@@H](C)c3c[nH]c4cccc(F)c34)NC(=O)[C@@H]3C[C@H](F)CN3C(=O)CNC(=O)[C@H](Cc3ccc(C(N)=O)cc3)NC(=O)[C@H](CC34CC(C3)C4)NC2=O)cc1) [SEQ ID NO 373] | 0.012 nM
cyclo([TyrEtNAc][Ala(1-bicyclo(1.1.1)pentyl)][Phe(4-COOH)]G[Pro(cis-4-F)][Trp(βS-Me,4-F)][Aib]SW[d(αMeD)][Ala(4-THP)]Q[Dab]G[dPro(3S-(4-F-Bn))]) (SMILES CC(=O)NCCOc1ccc(C[C@@H]2NC(=O)[C@H]3[C@@H](Cc4ccc(F)cc4)CCN3C(=O)CNC(=O)[C@H](CCN)NC(=O)[C@H](CCC(N)=O)NC(=O)[C@H](CC3CCOCC3)NC(=O)[C@@](C)(CC(=O)O)NC(=O)[C@H](Cc3c[nH]c4ccccc34)NC(=O)[C@H](CO)NC(=O)C(C)(C)NC(=O)[C@H]([C@@H](C)c3c[nH]c4cccc(F)c34)NC(=O)[C@@H]3C[C@H](F)CN3C(=O)CNC(=O)[C@H](Cc3ccc(C(=O)O)cc3)NC(=O)[C@H](CC34CC(C3)C4)NC2=O)cc1) [SEQ ID NO 370] | 0.015 nM
cyclo([Phe(4-(4-Ac-piperazinyl))][4Pal][Phe(4-COOH)]G[Pro(cis-4-F)][Trp(βS-Me,4-F)][Aib]SW[Aib][Ala(pyrimidin-5-yl)]Q[Dab]G[dPro(4R-(4-pyridylmethyl))]) (SMILES CC(=O)N1CCN(c2ccc(C[C@@H]3NC(=O)[C@H]4C[C@@H](Cc5ccncc5)CN4C(=O)CNC(=O)[C@H](CCN)NC(=O)[C@H](CCC(N)=O)NC(=O)[C@H](Cc4cncnc4)NC(=O)C(C)(C)NC(=O)[C@H](Cc4c[nH]c5ccccc45)NC(=O)[C@H](CO)NC(=O)C(C)(C)NC(=O)[C@H]([C@@H](C)c4c[nH]c5cccc(F)c45)NC(=O)[C@@H]4C[C@H](F)CN4C(=O)CNC(=O)[C@H](Cc4ccc(C(=O)O)cc4)NC(=O)[C@H](Cc4ccncc4)NC3=O)cc2)CC1) [SEQ ID NO 366] | 0.021 nM
cyclo([Phe(4-(4-Ac-piperazinyl))][4Pal][Phe(2-Cl,4-COOH)]G[Pro(cis-4-F)][Trp(βS-Me,4-F)][Aib]SW[Aib][Ala(pyrimidin-5-yl)]Q[Dab]G[dPro(4R-(4-pyridylmethyl))]) (SMILES CC(=O)N1CCN(c2ccc(C[C@@H]3NC(=O)[C@H]4C[C@@H](Cc5ccncc5)CN4C(=O)CNC(=O)[C@H](CCN)NC(=O)[C@H](CCC(N)=O)NC(=O)[C@H](Cc4cncnc4)NC(=O)C(C)(C)NC(=O)[C@H](Cc4c[nH]c5ccccc45)NC(=O)[C@H](CO)NC(=O)C(C)(C)NC(=O)[C@H]([C@@H](C)c4c[nH]c5cccc(F)c45)NC(=O)[C@@H]4C[C@H](F)CN4C(=O)CNC(=O)[C@H](Cc4ccc(C(=O)O)cc4Cl)NC(=O)[C@H](Cc4ccncc4)NC3=O)cc2)CC1) [SEQ ID NO 365] | 0.023 nM
cyclo([TyrEtNAc][Ala(1-bicyclo(1.1.1)pentyl)][Phe(4-CONH2)]G[Pro(cis-4-F)][Trp(βS-Me,4-F)][Aib]SW[d(αMeD)][Ala(4-THP)]Q[Dab]G[dPro(4R-(4-pyridylmethyl))]) (SMILES CC(=O)NCCOc1ccc(C[C@@H]2NC(=O)[C@H]3C[C@@H](Cc4ccncc4)CN3C(=O)CNC(=O)[C@H](CCN)NC(=O)[C@H](CCC(N)=O)NC(=O)[C@H](CC3CCOCC3)NC(=O)[C@@](C)(CC(=O)O)NC(=O)[C@H](Cc3c[nH]c4ccccc34)NC(=O)[C@H](CO)NC(=O)C(C)(C)NC(=O)[C@H]([C@@H](C)c3c[nH]c4cccc(F)c34)NC(=O)[C@@H]3C[C@H](F)CN3C(=O)CNC(=O)[C@H](Cc3ccc(C(N)=O)cc3)NC(=O)[C@H](CC34CC(C3)C4)NC2=O)cc1) [SEQ ID NO 376] | 0.048 nM
cyclo([TyrEtNAc][Ala(1-bicyclo(1.1.1)pentyl)][Phe(4-COOH)]G[Pro(cis-4-F)][Trp(βS-Me,4-F)][Aib]SW[d(αMeS)][Ala(4-THP)]Q[Dab]G[dPro(3S-(4-F-Bn))]) (SMILES CC(=O)NCCOc1ccc(C[C@@H]2NC(=O)[C@H]3[C@@H](Cc4ccc(F)cc4)CCN3C(=O)CNC(=O)[C@H](CCN)NC(=O)[C@H](CCC(N)=O)NC(=O)[C@H](CC3CCOCC3)NC(=O)[C@@](C)(CO)NC(=O)[C@H](Cc3c[nH]c4ccccc34)NC(=O)[C@H](CO)NC(=O)C(C)(C)NC(=O)[C@H]([C@@H](C)c3c[nH]c4cccc(F)c34)NC(=O)[C@@H]3C[C@H](F)CN3C(=O)CNC(=O)[C@H](Cc3ccc(C(=O)O)cc3)NC(=O)[C@H](CC34CC(C3)C4)NC2=O)cc1) [SEQ ID NO 371] | 0.014 nM
cyclo([TyrEtNAc][4Pal][Phe2Cl4COOH]G[Pro(cis-4-F)][Trp(βS-Me,4-F)][Aib]SW[Aib][Ala(pyrimidin-5-yl)]Q[Dab]G[dPro(4R-(4-pyridylmethyl))]) [SEQ ID NO 367] | 0.017 nM
cyclo([TyrEtNAc][4Pal][Phe(4-COOH)]G[Pro(cis-4-F)][Trp(βS-Me,4-F)][Aib]SW[d(αMeD)][Ala(pyrimidin-5-yl)]Q[Dab]G[dPro(3S-(4-F-Bn))]) (SMILES CC(=O)NCCOc1ccc(C[C@@H]2NC(=O)[C@H]3[C@@H](Cc4ccc(F)cc4)CCN3C(=O)CNC(=O)[C@H](CCN)NC(=O)[C@H](CCC(N)=O)NC(=O)[C@H](Cc3cncnc3)NC(=O)[C@@](C)(CC(=O)O)NC(=O)[C@H](Cc3c[nH]c4ccccc34)NC(=O)[C@H](CO)NC(=O)C(C)(C)NC(=O)[C@H]([C@@H](C)c3c[nH]c4cccc(F)c34)NC(=O)[C@@H]3C[C@H](F)CN3C(=O)CNC(=O)[C@H](Cc3ccc(C(=O)O)cc3)NC(=O)[C@H](Cc3ccncc3)NC2=O)cc1) [SEQ ID NO 369] | 0.021 nM
cyclo([TyrEtNAc][4Pal][Phe(4-COOH)]G[Pro(cis-4-F)][Trp(βS-Me,4-F)][Aib]SW[d(αMeD)][Ala(4-THP)]Q[Dab]G[dPro(3S-(4-F-Bn))]) (SMILES CC(=O)NCCOc1ccc(C[C@@H]2NC(=O)[C@H]3[C@@H](Cc4ccc(F)cc4)CCN3C(=O)CNC(=O)[C@H](CCN)NC(=O)[C@H](CCC(N)=O)NC(=O)[C@H](CC3CCOCC3)NC(=O)[C@@](C)(CC(=O)O)NC(=O)[C@H](Cc3c[nH]c4ccccc34)NC(=O)[C@H](CO)NC(=O)C(C)(C)NC(=O)[C@H]([C@@H](C)c3c[nH]c4cccc(F)c34)NC(=O)[C@@H]3C[C@H](F)CN3C(=O)CNC(=O)[C@H](Cc3ccc(C(=O)O)cc3)NC(=O)[C@H](Cc3ccncc3)NC2=O)cc1) [SEQ ID NO 372] | 0.009 nM
cyclo([TyrEtNAc][4Pal][Phe(4-COOH)]G[Pro(cis-4-F)][Trp(βS-Me,4-F)][Aib]SW[Aib][Ala(pyrimidin-5-yl)]Q[Dab]G[dPro(4R-(4-pyridylmethyl))]) (SMILES CC(=O)NCCOc1ccc(C[C@@H]2NC(=O)[C@H]3C[C@@H](Cc4ccncc4)CN3C(=O)CNC(=O)[C@H](CCN)NC(=O)[C@H](CCC(N)=O)NC(=O)[C@H](Cc3cncnc3)NC(=O)C(C)(C)NC(=O)[C@H](Cc3c[nH]c4ccccc34)NC(=O)[C@H](CO)NC(=O)C(C)(C)NC(=O)[C@H]([C@@H](C)c3c[nH]c4cccc(F)c34)NC(=O)[C@@H]3C[C@H](F)CN3C(=O)CNC(=O)[C@H](Cc3ccc(C(=O)O)cc3)NC(=O)[C@H](Cc3ccncc3)NC2=O)cc1) [SEQ ID NO 368] | 0.022 nM
cyclo([TyrEtNAc][Ala(1-bicyclo(1.1.1)pentyl)][Phe(4-COOH)]G[Pro(cis-4-F)][Trp(βS-Me,4-F)][Aib]SW[d(αMeD)][Ala(4-THP)]Q[Dab]G[dPro(4R-(4-pyridylmethyl))]) (SMILES CC(=O)NCCOc1ccc(C[C@@H]2NC(=O)[C@H]3C[C@@H](Cc4ccncc4)CN3C(=O)CNC(=O)[C@H](CCN)NC(=O)[C@H](CCC(N)=O)NC(=O)[C@H](CC3CCOCC3)NC(=O)[C@@](C)(CC(=O)O)NC(=O)[C@H](Cc3c[nH]c4ccccc34)NC(=O)[C@H](CO)NC(=O)C(C)(C)NC(=O)[C@H]([C@@H](C)c3c[nH]c4cccc(F)c34)NC(=O)[C@@H]3C[C@H](F)CN3C(=O)CNC(=O)[C@H](Cc3ccc(C(=O)O)cc3)NC(=O)[C@H](CC34CC(C3)C4)NC2=O)cc1) [SEQ ID NO 374] | 0.017 nM
cyclo([TyrEtNAc][Ala(1-bicyclo(1.1.1)pentyl)][Phe(4-COOH)]G[Pro(cis-4-F)][Trp(βS-Me,4-F)][Aib]SW[d(αMeS)][Ala(4-THP)]Q[Dab]G[dPro(4R-(4-pyridylmethyl))]) (SMILES CC(=O)NCCOc1ccc(C[C@@H]2NC(=O)[C@H]3C[C@@H](Cc4ccncc4)CN3C(=O)CNC(=O)[C@H](CCN)NC(=O)[C@H](CCC(N)=O)NC(=O)[C@H](CC3CCOCC3)NC(=O)[C@@](C)(CO)NC(=O)[C@H](Cc3c[nH]c4ccccc34)NC(=O)[C@H](CO)NC(=O)C(C)(C)NC(=O)[C@H]([C@@H](C)c3c[nH]c4cccc(F)c34)NC(=O)[C@@H]3C[C@H](F)CN3C(=O)CNC(=O)[C@H](Cc3ccc(C(=O)O)cc3)NC(=O)[C@H](CC34CC(C3)C4)NC2=O)cc1) [SEQ ID NO 375] | 0.025 nM
